The target in assay [1] is HLA-A*03:01. The experiment in a line: IEDB peptide-MHC binding, purified MHC/competitive/fluorescence; ≥ and ≤ were set here for values at or beyond the usual limits of such assays.
The target of assay [2] is HLA-A*11:01. Described as above.
Assay [3] concerns the target HLA-A*30:01. The experiment in a line: IEDB peptide-MHC binding, purified MHC/competitive/radioactivity; filed as Kd, often an IC50 or EC50 that approximates it; ≥ and ≤ were set here for values at or beyond the usual limits of such assays. To be noted: source organism: Vaccinia virus WR.
The target of assay [4] is HLA-A*32:01. Described as above. To be noted: source organism: Vaccinia virus WR.
The target of assay [5] is HLA-B*08:01. Described as above. The settings on record: source organism: Vaccinia virus WR.
In assay [6] the target is HLA-B*15:01. The assay is described as above. To be noted: source organism: Vaccinia virus WR.
Assay [7] addresses HLA-B*15:03. Described as above. The settings on record: source organism: Vaccinia virus WR.
The target in assay [8] is HLA-A*68:02. Described as above.
In assay [9] the target is HLA-A*02:01. Described as above.
In assay [10] the target is HLA-A*02:02. Described as above.
The target in assay [11] is HLA-A*02:03. The assay is described as above.
The target in assay [12] is HLA-A*02:06. Described as above.
Assay [13] concerns the target HLA-A*26:01. The description is as above. To be noted: source organism: Dengue virus 2 Jamaica/1409/1983.
Assay [14] has as its target HLA-A*01:01. The experiment in a line: IEDB peptide-MHC binding, purified MHC/direct/fluorescence; filed as Kd, often an IC50 or EC50 that approximates it; ≥ and ≤ were set here for values at or beyond the usual limits of such assays. The settings on record: source organism: Influenza A virus (A/Duck/Shantou/1881/00(H9N2)).
For assay [15], the target named is HLA-A*02:01. The assay is described as above. To be noted: source organism: Influenza A virus (A/Duck/Shantou/1881/00(H9N2)).
In assay [16] the target is HLA-A*02:03. Described as above. To be noted: source organism: Influenza A virus(A/swine/Henan/8/2004(H9N2)).
In assay [17] the target is HLA-A*02:11. Described as above. To be noted: source organism: Influenza A virus(A/swine/Henan/8/2004(H9N2)).
The target of assay [18] is HLA-A*02:12. The assay is described as above. The settings on record: source organism: Influenza A virus(A/swine/Henan/8/2004(H9N2)).
Assay [19] deals with HLA-A*02:19. Described as above. To be noted: source organism: Influenza A virus(A/swine/Henan/8/2004(H9N2)).
Assay [20] concerns the target HLA-A*03:01. Described as above. To be noted: source organism: Influenza A virus (A/Duck/Shantou/1881/00(H9N2)).
Assay [21] addresses HLA-A*11:01. The description is as above. To be noted: source organism: Influenza A virus (A/Duck/Shantou/1881/00(H9N2)).
Assay [22] addresses HLA-A*24:03. The description is as above. The settings on record: source organism: Influenza A virus (A/Duck/Shantou/1881/00(H9N2)).
Assay [23] deals with HLA-A*31:01. The description is as above. The settings on record: source organism: Influenza A virus (A/Duck/Shantou/1881/00(H9N2)).
The target of assay [24] is HLA-B*07:02. The assay is described as above. To be noted: source organism: Influenza A virus (A/Duck/Shantou/1881/00(H9N2)).
Assay [25] addresses HLA-B*15:01. The description is as above. The settings on record: source organism: Influenza A virus (A/Duck/Shantou/1881/00(H9N2)).
For assay [26], the target named is HLA-B*27:05. The assay is described as above. The settings on record: source organism: Influenza A virus (A/Duck/Shantou/1881/00(H9N2)).
Assay [27] addresses HLA-B*40:01. The description is as above. The settings on record: source organism: Influenza A virus (A/Duck/Shantou/1881/00(H9N2)).
The target of assay [28] is HLA-B*58:01. The assay is described as above. To be noted: source organism: Influenza A virus (A/Duck/Shantou/1881/00(H9N2)).
Assay [29] deals with HLA-A*02:01. The experiment in a line: IEDB peptide-MHC binding, purified MHC/competitive/fluorescence; ≥ and ≤ were set here for values at or beyond the usual limits of such assays. The settings on record: source organism: Vaccinia virus Copenhagen.
In assay [30] the target is HLA-A*31:01. The experiment in a line: IEDB peptide-MHC binding, purified MHC/competitive/radioactivity; filed as Kd, often an IC50 or EC50 that approximates it; ≥ and ≤ were set here for values at or beyond the usual limits of such assays. To be noted: source organism: Vaccinia virus WR.
For assay [31], the target named is HLA-A*33:01. The assay is described as above. The settings on record: source organism: Vaccinia virus WR.
The target in assay [32] is HLA-A*68:01. The description is as above. To be noted: source organism: Vaccinia virus WR.
Assay [33] addresses HLA-A*24:02. The experiment in a line: IEDB peptide-MHC binding, purified MHC/competitive/fluorescence; ≥ and ≤ were set here for values at or beyond the usual limits of such assays. To be noted: source organism: Sudan ebolavirus.
In assay [34] the target is HLA-B*51:01. The experiment in a line: IEDB peptide-MHC binding, purified MHC/competitive/radioactivity; filed as Kd, often an IC50 or EC50 that approximates it; ≥ and ≤ were set here for values at or beyond the usual limits of such assays. To be noted: source organism: Dengue virus 2 Jamaica/1409/1983.
Setting [35] is: source organism: Trypanosoma cruzi.
The mark [36] stands for this setting: source organism: Zaire ebolavirus.
The mark [37] stands for this setting: source organism: Dengue virus 2 Jamaica/1409/1983.
The mark [38] stands for this setting: source organism: Sudan ebolavirus.
Where [39] appears, read: source organism: Mammarenavirus brazilense.
Where [40] appears, read: source organism: Vaccinia virus Copenhagen.

For orientation: IC50 means the concentration that gives 50% inhibition. High values mean a need for much substance, low ones inhibition by little substance. Turning to SLPRIALVR, the IC50 in [1] (source organism: Variola virus) amounted to 781 nM; in assay [2] (source organism: Variola virus) it was 408 nM.

Broadly, the Kd is the free concentration of one partner at which half of the binding sites on the other are occupied at equilibrium, for simple one-to-one binding. With GERYYFAYI, the dissociation constant (Kd) amounted to 6620 nM in [3]; 19500 nM in [4]; 6.86 nM in assay [5]; 673 nM in assay [6]; 238 nM in [7].

Consider ALKTELEDTL, for which, in [8] (source organism: Homo sapiens), the dissociation constant (Kd) was at least 60000 nM.

Take MIRILIGFLV: in [8] (source organism: Dengue virus 4 Dominica/814669/1981), the Kd amounted to 295 nM.

For NMFNISFRF, the dissociation constant (Kd) in [3] was 27.2 nM; in [4] it was 3.6 nM; in [5] it was 1540 nM; in assay [6], 43.4 nM; in assay [7], 18.5 nM.

On to GLLLLLLLLG, for which the equilibrium dissociation constant (Kd) came out at 171 nM in assay [9] (setting [35]); 456 nM in assay [10] (setting [35]); 330 nM in assay [11] (setting [35]); 420 nM in assay [12] (setting [35]); 1790 nM in assay [8] (setting [35]).

HGFRFEVKK: the half-maximal inhibitory concentration (IC50) in assay [1] (setting [36]) is 2200 nM; in [2] (setting [36]) it was 86.5 nM.

Consider SGNRGSTSF, for which, in [7], the dissociation constant Kd worked out at 25.2 nM.

For FIAFLRFLA, the Kd in [8] (source organism: Dengue virus 1 Brazil/97-11/1997) is at most 1 nM.

Regarding IMVSEHFSL, the Kd in assay [7] was found to be 5.51 nM.

ILHHHRNVF: the Kd is 13 nM in [5] and 1.33 nM in assay [7].

Regarding KTIYAVDSF, the Kd in assay [3] was 1390 nM; in [4] it was 6.78 nM; in [5], at least 31900 nM; in assay [6], 4.04 nM; in assay [7], 321 nM.

As for FVYVPELSF, the figures for the Kd in assay [6] and in [7] were 0.963 nM and 203 nM, respectively.

With MILVPLITV, the Kd in assay [9] (source organism: Variola virus) was determined as 14.6 nM; in assay [10] (source organism: Variola virus) it was 138 nM; in assay [11] (source organism: Variola virus), 29.6 nM; in assay [12] (source organism: Variola virus) it was 2.55 nM; in [8] (source organism: Variola virus) it was 0.278 nM.

Consider EIVDLMCHA, for which the dissociation constant Kd in [13] stood at 1580 nM; in [8] (setting [37]), 44 nM.

Consider KMAADRGAF, for which the equilibrium dissociation constant (Kd) in assay [7] was found to be 2.5 nM.

For SQQNSDSIF, the Kd in assay [7] is 1.87 nM.

Turning to SLPPNFSSL, the Kd in [14] was at least 20000 nM; in [15] it was 9.3 nM; in [16] it was 3 nM; in assay [17], 24 nM; in [18], 5 nM; in assay [19], 124 nM. For the same sequence, the Kd in assay [20] is at least 20000 nM; in assay [21], at least 20000 nM; in [22], 7.5 nM; in assay [23], at least 20000 nM; in assay [24] it was 1650 nM; in assay [25], 115 nM. Further, the Kd in [26], in [27] and in assay [28] was at least 20000 nM each time.

Turning to RKYSDLVPK, the IC50 in [1] (setting [38]) came out at 49100 nM; in assay [2] (setting [38]), 4130 nM.

On to AINIALIAV, for which the Kd in assay [10] (setting [39]) was determined as 766 nM; in assay [11] (setting [39]), 46.7 nM; in assay [12] (setting [39]), 681 nM; in assay [8] (setting [39]), 1300 nM.

On to YKVFTDISM, for which the Kd in assay [7] amounted to 2.18 nM.

Take RGSWATSSF: the dissociation constant Kd in [7] is 11.1 nM.

Turning to RSLIIVLLF, the dissociation constant Kd in [3] was 2350 nM; in assay [4], 299 nM; in assay [5], 959 nM; in [6], 194 nM; in [7] it was 225 nM.

Regarding ETVSEESNV, the dissociation constant Kd in [8] (source organism: Homo sapiens) amounted to 44 nM.

For the sequence FIMLEGETK, the IC50 in assay [29] is 30700 nM; in [1] (setting [40]) it was at least 116000 nM; in assay [2] (setting [40]), 4880 nM. Moreover, the Kd amounted to 17800 nM in assay [30], 4410 nM in [31] and 28.1 nM in [32].

For KPNSFTFSF, the dissociation constant (Kd) worked out at 13900 nM in assay [4] and 254 nM in assay [7].

For TYTILNRKA, the IC50 was at least 94900 nM in assay [1] (setting [38]), at least 90000 nM in assay [2] (setting [38]) and 22100 nM in assay [33].

Turning to FFKQTFGSL, the Kd in assay [3] was 497 nM; in assay [4] it was at least 55800 nM; in assay [5], 0.735 nM; in [6], 1560 nM; in [7], 1080 nM.

On to MAISGDDCV, for which the equilibrium dissociation constant (Kd) in assay [8] (setting [37]) worked out at 65.8 nM; in assay [34] it was 17400 nM.

Take TKFTDFQDF: the Kd in [7] amounted to 2.22 nM.

As for NTFVLKKEV, the dissociation constant Kd in [8] (source organism: Dengue virus 3 Martinique/1243/1999) was 80.9 nM.

As to ITKGRISDR, the half-inhibitory concentration (IC50) is 66300 nM in [1] (setting [38]) and at least 135000 nM in [2] (setting [38]).

With QTNTKATGK, the figures for the 50% inhibitory concentration (IC50) in assay [1] (setting [38]) and in assay [2] (setting [38]) were 14000 nM and 2180 nM, respectively.

As to TKTLDISSF, the Kd in assay [7] came out at 54.5 nM.

(Values after the Immune Epitope Database (IEDB).)
